Data published in the DeepSol protein solubility set.

Test: soluble on expression in E. coli; label from the status in PepcDB or PDB records

| Sequence | soluble on expression in E. coli |
| --- | --- |
| MLGLVSLCALILILWRVVYRSVTRPLAEQTQALQRLLDGDIDSPFPETAGVRELDTIGRLMDAFRSSVHALNRHREQLAAQVKARTAELQELVIEHRQARAEAEKASQAKSAFLAAMSHEIRTPLYGILGTAQLLADNPALNAQRDDLRAITDSGESLLTILNDILDYSAIEAGGKNVSVSDEPFEPRPLLESTLQLMSGRVKGRPIRLATEIADDVPTALMGDPRRIRQVITNLLSNALRFTDEGHIILRSRTDGEQWLVEVEDSGCGIDPAKLAEIFQPFVQVSGKRGGTGLGLTISSRLAQAMGGELSATSTPEVGSCFCLRLPLRIATAPVPKTVNQAVRLDDLRLLLIEDNPLTQRITVEMLNTSGAQVVAVGNAAQAIEALQNSEPFAAALVDFDLPDIDGITLARQLAQQYPSLVLIGFSAHVIDETLRQRTSSLFRGIIPKPVPREVLGQLLAHYLQLQVNNDQPLDVSQLNEDAHLMGAEKIHEWLILFKQHALPLLDEIDIARASQDNEKIKRAAHQLKSSCSSLGMRSASQQCAQLEQQPLSAPLPHEEITRSVAALEAWLIRKT | not soluble |
| MGSDKIHHHHHHMLRGLWGAAAGMITQQQRQEMLTNNLANVNTPGYKADQAAIRAFPNMLIAAMNTGNVPKGVAPVIGELTTGVYLQERMPNFRQGDLVETQNNTDVALLQGVMPTNEENGQPWALFYTVQNENGEVRYTRNGNFTVDGDGFLTTGDGFYVLGTDGNPLQVNNEWFNVDGDGMITDEAGAAIGQINVVVAEDPMQLVKEGNGLLRFEGDGELPTGVGNAAVNYQLQQGFIERSNVDAAQTMTEMMQAYRTFEANQQVLRAYDESLGKAVNEVGRIG | not soluble |
| MMETQNVKDTVRQIFTEYLTANGHRKTPERYAILETIYSIDGHFDIDMLYSRMMDQENFRVSRATLYNTIILLINARLIIKHQFGTSSQYEKSYNRETHHHQICTQCGKVTEFQNEELQHAIENTKLSRFQLSHYSLYIYGLCSKCDRANKRKKVSNNNKKEK | not soluble |
| MSLQSFRVQCPTSTITHNPNSNFPGGIKCQQISGGDGYSTMADGVQTYMFSFGPLSGLADIRNGLPGTQPASIFNTLGNPYTDTTFNGAVGLTPDPDSVPPNQIDGHVDPRPIMDIGVMNGNIPAPLMAIDEDDEFFLTLTNVGMIMRPDLFERHTVHFHGYPNASSFYDGVPDASVAINIGGSFTYYYLAPDAGTYFWHCHITPPEHLQMGMVGQIYVRPRQDRVPAGAALYTALVGQQADLRTACGTTDVLCSTPLPPTNAVKRLNNKNGTPTLYAYNDGDGSTAYDVEYPIQIHGFDPNFHFIGMTFNPEPFTDMKDKYFMLNGRSYPDTITPGPMTTPSSDGALHYSQPLPTVINIPAGGKALLRISNLDVTEYQTLASLGIPMHVIGINARLLRDMAGGDMTYYANSITLGGGESLDVLLDASDTSSYPRGSTFYLYTPNLDHLSNDAENFGGLMTEVHICGAVDPATKQCTEGHHHHHH | not soluble |
| MAHHHHHHMKFAFVFPGQGSQSVGMLNAFADVAVVRETLDEASDALGQDIGKLIADGPADELNLTTNTQPVMLTAAYACYRAWQQAGGAQPSIVAGHSLGEYTALVAAGAIAFRDALPLVRFRAQAMQTAVPVGVGGMAAILGLDDDTVRAVCAEASATGVVEAVNFNAPAQVVIAGTKAGIEKACEIAKEKGAKRALPLPVSAPFHSSLLKPASDKLREYLAGVDVKAPKISVVNNIDVAVVSDPAAIKDALVRQAAGPVRWVECVQHIAREGVTHVIECGPGKVLAGLTKRIDGNLVGASVFDPASLDEALKLAAA | soluble |
| FAPLEADHPGRSGLLALLDNPDAYAARALSARMAGRSLDLMYYIWRTDLTGWLLIEELLAAADRGVRVRLLLDDVNVQGFDRAFLALNQHPNVEVRLFNPIRNRGHVLRRTLEMLLGLSRFNRRMHNKAWIADGRLAIVGGRNIGDTYYDAEESGLAMSRDADVMLAGPVVAEVEGLFDSYWNLGLALPILTLWPE | not soluble |
| MGSDKIHHHHHHMAVNRFRLENGKEELALYQIQLLKDQSHNENEEDKVSSSSFRQRILGNLLQPPNERPELPSGLYVLGLTGISGSGKSSVAQRLKNLGAYIIDSDHLGHRAYAPGGPAYQPVVEAFGTDILHKDGTINRKVLGSRVFGNKKQMKILTDIVWPVIAKLAREEMDVAVAKGKTLCVIDAAMLLEAGWQSMVHEVWTVVIPETEAVRRIVERDGLSEAAAQSRLQSQMSGQQLVEQSNVVLSTLWESHVTQSQVEKAWNLLQKRLPKAYQTRN | soluble |
| MDPSSIDLGSIPGGSEQQQHEDGAAAAAGSPKEVFRSQQSLGLITQRFMSLRQRNEVLNLNEVAKELNISKRRVYDVINVLEGLGYVEKVEKNNIRWIGDNNNSEEQNALEARVEMLRQQEKLLELMIRDAQAIIELHFEDPIERPYNYVSKEDIRKTAEPNTKSIIVKSELDTSSSFEIQVTDPSTSGSHDMIVRNKNGVKSHALLFTNDPPEYGDEEDEDDVKKLSSQKRFETSEALRVTLAEMLTDPTTISSSPKHIKLEEPEEIDTEDLETFAPPEFSENKWSQKIGGGLAILWAWLALMPRPQNGNFFSAKFFKFFPETVARKTFVLPPSTSASQSNAPYLPETPGRGLFFSPFKSLIDPCILPSFSDDLTSGYINITTPSRATGAGAGASGQEDEEPVSVMDFFSD | not soluble |
| MSYNSIRLPQDLPIYYKNFFPVKPFTKWLRYGQNNGDYFNRREFAFILADDVHIRYRSYNDEHAFFKALSSTNPEKLDIGAVYNHEPINNKRHTDYQAVERELVFDIDLTDYDPVRNCCKDATVCPKCWKFMVLAVKILDFQLEDMFDFKARMWVFSGRRGVHCWVGDKKARMLNNYQRSAIATRLNLFKKNGQCEVTEGRAKMTKVPPIVRDAFNVALKDGVFEKMIYDQGWLDKEDFITEYKFMSEVGRDDLRSLSETYKTPQERWNMIRGLFDDDYRKSLSPKDGLLDFKMQGRDRNYLLYFVLQRCYPRLDVNVSTGTNHLLKSPFCIHPKTGNVAVPLNVGKIEEFDVSKCPRIDHVVEELSSLLAERGNDENEDSKNRKFLAYKHGALAPYVENFEKFVSACIS | not soluble |
| MGSDKIHHHHHHMSEWDKNRWKEGRSSEYTWKGVVFMAKIMKQFLKGNDLSLSIQEIFKNELIPCTVRHLPKGEILWHDKEPHPYSYFIINGIIKLHVVTKEGREKALFYYTNGSLLGFQNLAKEKRTITTATAILPTSLYACEFSLLYTFVMNNPQYFAAFTSYIFHHMAVEAEEIVNISLYNTAERLAALLVLLAEEFPQNEQGYIEIPFNNEELATMVGACRNSVFNALSVFQKQKLIHKGRGRLVIADLPRLKEYV | not soluble |
| MGSDKIHHHHHHMYLLDSAIAKQIVSRTMKIIGHNINVMNGQGMILGSGDPKRIGSIHEGALLAIAQNRNVEISQEVAASLHGVKPGINLPLHYQGQIIGVVGITGDPNELTHYGELLKMTAEMIVEQANLQDKLQWENRQREEFILQLIKAETDDRQLHRWAKQLDIDMSMPRVAAIIEISEKSTPIKIPKRPSDPLAIDLADTLQVNASDDRNHRVGETLKQVLHLLQYPDRGNLIAMTSMSQLVILKPAFLDGKQWDPELENQRIDRLLQRLPAQMNLNFKIALGHFFPENGGIARSYQTALETLALGKQLNPEGNKYLFEDYSLQVLLSGLKYDWRGQALAMPYQQLAKADKNGQLRKTLAAYITHFGDAQQCANTLFIHRNTLRYRLDKIQQITQADIQSLHGLLSLYLGQLIDSSKNTG | not soluble |
| GSPGISGGGGGSHIEGYECQPIFLNVLEAIEPGVVCAGHDNNQPDSFAALLSSLNELGERQLVHVVKWAKALPGFRNLHVDDQMAVIQYSWMGLMVFAMGWRSFTNVNSRMLYFAPDLVFNEYRMHKSRMYSQCVRMRHLSQEFGWLQITPQEFLCMKALLLFSIIPVDGLKNQKFFDELRMNYIKELDRIIACKRKNPTSCSRRFYQLTKLLDSVQPIARELHQFTFDLLIKSHMVSVDFPEMMAEIISVQVPKILSGKVKPIYFHTQ | soluble |
